Blank lines part the entries; values can stand above or below the binder they belong to.
Molecular target: VP4 coated on microplates (indirect blocking ELISA) (Rotavirus A, simian strain SA11 …, UniProt A2T3T2)
Assay: ELISA

binding result: binds
B1: C7H13 (chimeric antibody: variable regions of 7H13 in a human antibody framework) (antibody, V domains shown)
VH: QVQLKESGPGLVAPSQSLSITCTVSGFSLSRYSVHWVRQPPGKGLEWLGMIWNIGSTDYNSALKSRLSISKDNSQSQVFLKLNSLQTDDAAIYYCARNSGFDLFDFWGQGTTLTVS
VL: DIVMTQSHKFMSTSVGDRVSITCKASQDVTSAVAWYQQKPGQSPKLLISSASYRYTGVPDRFSGSGSGTDFTFTISSVQAEDLAVYYCQQHYSTPPTFGAGTKLELK

binding result: binds
B2: m41# (engineered mouse Fc version of 41#) (antibody, V domains shown)
VH: EVQLVESGGGPVQPGGSLKLSCAASGFTFSNYEMYWVRQAPGKGLEWVSYISTSPAITYYADSVRGRFTISRDNAKSSLYLHMNSLRAEDTAVYYCATISHQQFSSGWNAWFDPWGQGTLVTVSG
VL: NFMLTQPHSVSESPGKTVTISCTGSSGSIASNYVQWYRQRPGSAPTTVIYENYQRPSGVPARFSGSIDRSSNSASLTISGLQTDDEADYYCQSYDNNNLWVFGGGTKLTVL

Reference: publication PMC11746992 (Nature Communications, 2025)
